Assay results published in US20240425876A1 (CHIGENOVO, published 2024).

B1: N-terminal truncated version (aa 1-1347) of ABCA4 with an HA tag at its C-terminus (other)
chain: MGFVRQIQLLLWKNWTLRKRQKIRFVVELVWPLSLFLVLIWLRNANPLYSHHECHFPNKAMPSAGMLPWLQGIFCNVNNPCFQSPTPGESPGIVSNYNNSILARVYRDFQELLMNAPESQHLGRIWTELHILSQFMDTLRTHPERIAGRGIRIRDILKDEETLTLFLIKNIGLSDSVVYLLINSQVRPEQFAHGVPDLALKDIACSEALLERFIIFSQRRGAKTVRYALCSLSQGTLQWIEDTLYANVDFFKLFRVLPTLLDSRSQGINLRSWGGILSDMSPRIQEFIHRPSMQDLLWVTRPLMQNGGPETFTKLMGILSDLLCGYPEGGGSRVLSFNWYEDNNYKAFLGIDSTRKDPIYSYDRRTTSFCNALIQSLESNPLTKIAWRAAKPLLMGKILYTPDSPAARRILKNANSTFEELEHVRKLVKAWEEVGPQIWYFFDNSTQMNMIRDTLGNPTVKDFLNRQLGEEGITAEAILNFLYKGPRESQADDMANFDWRDIFNITDRTLRLVNQYLECLVLDKFESYNDETQLTQRALSLLEENMFWAGVVFPDMYPWTSSLPPHVKYKIRMDIDVVEKTNKIKDRYWDSGPRADPVEDFRYIWGGFAYLQDMVEQGITRSQVQAEAPVGIYLQQMPYPCFVDDSFMIILNRCFPIFMVLAWIYSVSMTVKSIVLEKELRLKETLKNQGVSNAVIWCTWFLDSFSIMSMSIFLLTIFIMHGRILHYSDPFILFLFLLAFSTATIMLCFLLSTFFSKASLAAACSGVIYFTLYLPHILCFAWQDRMTAELKKAVSLLSPVAFGFGTEYLVRFEEQGLGLQWSNIGNSPTEGDEFSFLLSMQMMLLDAAVYGLLAWYLDQVFPGDYGTPLPWYFLLQESYWLGGEGCSTREERALEKTEPLTEETEDPEHPEGIHDSFFEREHPGWVPGVCVKNLVKIFEPCGRPAVDRLNITFYENQITAFLGHNGAGKTTTLSILTGLLPPTSGTVLVGGRDIETSLDAVRQSLGMCPQHNILFHHLTVAEHMLFYAQLKGKSQEEAQLEMEAMLEDTGLHHKRNEEAQDLSGGMQRKLSVAIAFVGDAKVVILDEPTSGVDPYSRRSIWDLLLKYRSGRTIIMSTHHMDEADLLGDRIAIIAQGRLYCSGTPLFLKNCFGTGLYLTLVRKMKNIQSQRKGSEGTCSCSSKGFSTTCPAHVDDLTPEQVLDGDVNELMDVVLHHVPEAKLVECIGQELIFLLPNKNFKHRAYASLFRELEETLADLGLSSFGISDTPLEEIFLKVTEDSDSGPLFAGGAQQKRENVNPRHPCLGPREKAGQTPQDSNVCSPGAPAAHPEGQPPPEPECPGPQLNTG
notes: Expressed in HEK293 cells from a codon-optimized CDS; tested in cell lysate; also called N1347; not shown: hemagglutinin (HA) tag linked to the C-terminus
B2: C-terminal truncated version (aa 1348-2273) of ABCA4 with a Flag tag at its C-terminus (other)
chain: TQLVLQHVQALLVKRFQHTIRSHKDFLAQIVLPATFVFLALMLSIVIPPFGEYPALTLHPWIYGQQYTFFSMDEPGSEQFTVLADVLLNKPGFGNRCLKEGWLPEYPCGNSTPWKTPSVSPNITQLFQKQKWTQVNPSPSCRCSTREKLTMLPECPEGAGGLPPPQRTQRSTEILQDLTDRNISDFLVKTYPALIRSSLKSKFWVNEQRYGGISIGGKLPVVPITGEALVGFLSDLGRIMNVSGGPITREASKEIPDFLKHLETEDNIKVWFNNKGWHALVSFLNVAHNAILRASLPKDRSPEEYGITVISQPLNLTKEQLSEITVLTTSVDAVVAICVIFSMSFVPASFVLYLIQERVNKSKHLQFISGVSPTTYWVTNFLWDIMNYSVSAGLVVGIFIGFQKKAYTSPENLPALVALLLLYGWAVIPMMYPASFLFDVPSTAYVALSCANLFIGINSSAITFILELFENNRTLLRFNAVLRKLLIVFPHFCLGRGLIDLALSQAVTDVYARFGEEHSANPFHWDLIGKNLFAMVVEGVVYFLLTLLVQRHFFLSQWIAEPTKEPIVDEDDDVAEERQRIITGGNKTDILRLHELTKIYPGTSSPAVDRLCVGVRPGECFGLLGVNGAGKTTTFKMLTGDTTVTSGDATVAGKSILTNISEVHQNMGYCPQFDAIDELLTGREHLYLYARLRGVPAEEIEKVANWSIKSLGLTVYADCLAGTYSGGNKRKLSTAIALIGCPPLVLLDEPTTGMDPQARRMLWNVIVSIIREGRAVVLTSHSMEECEALCTRLAIMVKGAFRCMGTIQHLKSKFGDGYIVTMKIKSPKDDLLPDLNPVEQFFQGNFPGSVQRERHYNMLQFQVSSSSLARIFQLLLSHKDSLLIEEYSVTQTTLDQVFVNFAKQQTESHDLPLHPRAAGASRQAQD
notes: Expressed in HEK293 cells; captured on flag antibody-coupled magnetic beads; not shown: Flag tag linked to the C-terminus

Target: the molecule itself
Assay: Western blot of transfected HEK293 cells
Description: After 48 hours, the cells were lysed. The C-terminal truncated version containing a flag tag in the cells was enriched by using flag antibody (F1804. Sigma)-coupled magnetic beads, and then the presence of the N-terminal truncated version interacting with the C-terminal truncated version was detected by western blot using an HA antibody (AE036, ABclonal).

Protein | binding result
B1 | binds
B2 | binds
